We go through two molecules from patent publication US20080107600A1 (published 2008).

The target in experiment [1] is T1, DISC1-FLAG (full-length human DISC1 with a C-terminal FLAG tag) (human, UniProt Q9NRI5 1-854).
T1 construct: also called FLAG-tagged DISC1
T1 sequence: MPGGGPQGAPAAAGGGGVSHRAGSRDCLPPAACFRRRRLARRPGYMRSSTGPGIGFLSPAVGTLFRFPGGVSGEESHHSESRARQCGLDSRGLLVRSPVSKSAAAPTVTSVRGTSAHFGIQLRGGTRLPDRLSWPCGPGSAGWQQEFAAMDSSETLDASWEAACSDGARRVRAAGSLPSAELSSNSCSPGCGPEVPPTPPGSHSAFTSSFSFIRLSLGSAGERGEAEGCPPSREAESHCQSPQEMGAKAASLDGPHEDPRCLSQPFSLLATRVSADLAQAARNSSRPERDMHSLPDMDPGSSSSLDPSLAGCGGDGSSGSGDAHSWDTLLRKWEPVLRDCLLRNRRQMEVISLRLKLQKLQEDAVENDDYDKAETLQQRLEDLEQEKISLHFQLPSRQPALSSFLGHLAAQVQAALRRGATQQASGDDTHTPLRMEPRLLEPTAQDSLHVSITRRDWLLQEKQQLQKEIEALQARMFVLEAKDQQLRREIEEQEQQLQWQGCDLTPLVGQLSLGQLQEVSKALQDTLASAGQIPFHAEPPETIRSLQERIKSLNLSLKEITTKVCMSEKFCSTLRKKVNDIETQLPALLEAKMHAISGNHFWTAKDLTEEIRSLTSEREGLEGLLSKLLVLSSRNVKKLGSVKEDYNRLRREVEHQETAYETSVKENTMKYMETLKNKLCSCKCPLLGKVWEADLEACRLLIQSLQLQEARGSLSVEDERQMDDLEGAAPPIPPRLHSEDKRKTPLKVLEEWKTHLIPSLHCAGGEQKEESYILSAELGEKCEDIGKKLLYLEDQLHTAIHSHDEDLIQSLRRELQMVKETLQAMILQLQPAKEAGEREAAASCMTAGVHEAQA
Description: anti-FLAG immunoprecipitation from stable PC12 cells with or without NGF (50 ng/ml, 24 hours), blot with anti-FEZ1. As for the experimental part: Stably DISC1-FLAG-expressing PC12 cells were stimulated with a nerve growth factor (NGF) (50 ng/ml) for 24 hours and collected. Lysates were immunoprecipitated by anti-FLAG antibody. Immunoprecipitated complexes were subjected to SDS-PAGE and blotted with anti-FEZ1 antibody. […] Cells were either unstimulated (b, e, h, k) or stimulated with NGF (50 ng/ml) for 24 hours (c, f, 1,1), and 48 hours (d, g, J, m) and their neurites were subsequently microscopically observed.
(§1) HEK293T cells were transfected with DISC1-FLAG and FEZ1-HA, individually or in combination. FLAG-tagged truncated forms of DISC1 mentioned in the Plasmids section were also transfected in combination with FEZ-HA. Cells were lysed in TNE buffer/1% NP40. Prepared lysates were incubated with anti-FLAG antibody for 2 hours at 4° C. and then with Protein Gagarose (Invitrogen) for 1 hour at 4° C. The agarose beads were then washed five times with TNE buffer. Immunoprecipitates were subjected to SDS-PAGE and blotted with anti-HA antibody. Conversely, immunoprecipitates with anti-HA antibody were blotted with anti-FLAG antibody. PC12 cells were transfected with FEZ1-HA or mock and then lysed in TNE buffer/1% NP40. Lysates were immunoprecipitated by anti-HA antibody. Immunoprecipitates were subjected to SDS-PAGE and blotted with anti-actin antibody. […]

Experiment [2] deals with T2, DISC1/ΔBR-FLAG (deleted DISC1 that lacks the FEZ1-binding region, FLAG-tagged) (human, UniProt Q9NRI5 1-854).
T2 sequence: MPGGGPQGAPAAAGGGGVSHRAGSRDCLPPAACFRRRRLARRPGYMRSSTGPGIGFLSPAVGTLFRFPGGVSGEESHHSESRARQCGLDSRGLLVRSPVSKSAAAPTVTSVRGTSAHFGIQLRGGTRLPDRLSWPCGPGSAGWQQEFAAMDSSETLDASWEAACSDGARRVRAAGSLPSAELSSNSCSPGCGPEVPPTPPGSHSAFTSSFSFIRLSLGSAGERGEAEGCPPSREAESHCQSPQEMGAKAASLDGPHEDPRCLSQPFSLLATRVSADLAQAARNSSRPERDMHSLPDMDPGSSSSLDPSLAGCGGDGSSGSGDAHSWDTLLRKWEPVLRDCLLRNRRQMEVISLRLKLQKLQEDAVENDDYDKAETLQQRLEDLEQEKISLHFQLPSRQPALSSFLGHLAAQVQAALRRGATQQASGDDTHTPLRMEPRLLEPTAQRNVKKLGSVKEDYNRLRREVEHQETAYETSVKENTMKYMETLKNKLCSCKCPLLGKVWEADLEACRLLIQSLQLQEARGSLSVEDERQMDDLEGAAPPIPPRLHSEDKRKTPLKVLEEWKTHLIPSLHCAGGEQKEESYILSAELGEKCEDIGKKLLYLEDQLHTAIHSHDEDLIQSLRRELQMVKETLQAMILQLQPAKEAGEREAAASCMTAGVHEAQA
Description: co-immunoprecipitation from transfected HEK293T cells, anti-FLAG / anti-HA. As for the experimental part:
(a) Yeast two-hybrid assay to determine the binding regions of FEZ1 (upper panel) and DISC1 (lower panel). Open bars indicate the FEZ1 clone obtained by the screening and DISC1 clone used as bait. Closed bars indicate shorter fragments. […] The α-galactosidase activity of yeast transformants were assayed. +++ indicates strongly positive as a positive control. ++, + and − indicate moderately positive, weakly positive and negative, respectively. (b) DISC1 coimmunoprecipitated with FEZ1. HEK293T cells were transfected with DISC1-FLAG and FEZ1-HA, individually or in combination. […] Immunoprecipitates by anti-FLAG or anti-HA antibody were blotted with the reciprocal antibody.
as §1, with “NP40.” for “NP40. Lysates were immunoprecipitated by anti-HA antibody. Immunoprecipitates were subjected to SDS-PAGE and blotted with anti-actin antibody.”

B1: endogenous FEZ1 of PC12 cells (other, rat, UniProt P97577 1-393, looked up)
chain: MEAPLVSLDEEFEDIRPCCTEDPEEKPQSLYGTSPHHLEDPSLSELENFSSEIISFKSMEDLVNEFDEKLNVCFRNYNAKTENLAPVKNQLQIQEEEETLRDEEVWDALTDNYIPSLSEDWRDPNIEALNGNSSDTEIHEKEEEDEFIEKSENDSGINEEPLLTADQVIEEIEEMMQNSPDPEEEVEVLEEEDGGEISSQADSVLLQEMQALTQTFNNNWSYEGLRHMSGSELTELLDQVEGAIRDFSEELVHQLARRDELEFEKEVKNSFITVLIEVQNKQKEQRELMKKRRKEKGLSLQSSRIEKGNQMPLKRFSMEGISNILQSGIRQTFGSSGADRQYLNTVIPYEKKSSPPSVEDLQMLTNILFAMKEDNEKVPTLLTDYILKVLCPT
Consider B1, for which the binding result in experiment [1] is recorded as “binds”.

B2: FEZ1-HA (human FEZ1 with a C-terminal HA tag) (other, not shown: small tags and cut ends)
chain: MEAPLVSLDEEFEDLRPSCSEDPEEKPQCFYGSSPHHLEDPSLSELENFSSEIISFKSMEDLVNEFDEKLNVCFRNYNAKTENLAPVKNQLQIQEEEETLQDEEVWDALTDNYIPSLSEDWRDPNIEALNGNCSDTEIHEKEEEEFNEKSENDSGINEEPLLTADQVIEEIEEMMQNSPDPEEEEEVLEEEDGGETSSQADSVLLQEMQALTQTFNNNWSYEGLRHMSGSELTELLDQVEGAIRDFSEELVQQLARRDELEFEKEVKNSFITVLIEVQNKQKEQRELMKKRRKEKGLSLQSSRIEKGNQMPLKRFSMEGISNILQSGIRQTFGSSGTDKQYLNTVIPYEKKASPPSVEDLQMLTNILFAMKEDNEKVPTLLTDYILKVLCPT
notes: Expressed from pcDNA3.1(+) in HEK293T or PC12 cells; also called HA-tagged FEZ1; FEZ-HA
As to B2, the binding result in experiment [2] is reported as “no binding”.
